The target of test [1] is integrin β3 cytoplasmic tail (UniProt P05106). The test can be described thus: ITC.
Test [2] concerns the target skelemin tandem IgC2 domains 4 and 5 with the interconnecting linker, C1354S (mouse). The test can be described thus: ITC. (In general: Isothermal titration calorimetry measures the heat released or taken up as one component is titrated into another.)

Chain of integrin β3 cytoplasmic tail (P05106 742-788): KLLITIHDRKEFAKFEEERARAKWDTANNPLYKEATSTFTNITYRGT

The Kd is the concentration at which binding is half-saturated. A high value points to a looser complex. In general, stoichiometry N refers to the number of molecules, sites or subunits per partner or assembly. Turning to “integrin αIIb cytoplasmic tail peptide (starting from W988)”, the dissociation constant (Kd) in test [1] stood at 5.7 µM. In test [2], this substance registered a dH of -0.382 kcal/mol and a stoichiometry N of 1.26.

Values taken from article PMC4222533.
